In paper PMC4546648:

Target: GST-K15P cytoplasmic domain (aa 347-489) (Kaposi's sarcoma herpesvirus (KSHV, HHV-8)) (UniProt Q9QR69)
Experiment: SPR; Biacore X100; GST-K15P cytoplasmic tail amine-coupled to a CM4 chip (207 RU); His-tagged PLCγ2 cSH2 wt or SB injected at 1.5, 3, 6, 12, 24 nM, single cycle kinetics, 30 μl/min, HBS-EP buffer pH 7.4

Row | Substance | Kd
1 | His-tagged PLCγ2 cSH2 S677V/R695L superbinder, purified from E. coli (domain or fragment) | 3.8 nM
2 | His-tagged PLCγ2 cSH2 domain wt, purified from E. coli (from UniProt P16885 1-1265) (domain or fragment) | 5.8 nM
